In US10293026B2, “Agent for preventing or treating demyelinating disease” (Osaka University, priority 2014, dated 2019):

Assays:
[1] = system: myelin sheath in demyelination model mice; test: MBP positive regions in spinal cord of demyelination model mice (Example 6); type: in vivo, C57BL/6j mice; conditions: subcutaneous 500 ng/kg per day for 2 weeks from 7 days after lysophosphatidylcholine, one mouse per group, FIG. 6
Protocol: Demyelination model mice were created as in Example 5 above. An FGF21-containing solution prepared by diluting recombinant FGF21 (R&D) in saline solution was subcutaneously administered for 2 weeks at a dose of 500 ng/kg body weight of FGF21 per day, to the demyelination model mice after 7 days from the administration of lysophosphatidylcholine. After 2 weeks, the demyelination model mice were anesthetized and transcardially perfused with saline solution, and spinal cord tissue was harvested. Sections were prepared from the harvested spinal cord tissue as in Example 5 above and then immunostained using an anti-MBP antibody, and MBP positive regions in the sections were counted. As a control, a saline solution containing 0.5% BSA was used, and MBP positive regions were counted under the same conditions as those described above. This experiment conducted the study using one mouse for each group.

[2] = system: oligodendrocyte precursor cells in demyelination model mice; test: PDGFRα and Ki67 double-positive cells in spinal cord of demyelination model mice, subcutaneous administration (Example 5); type: in vivo, C57BL/6j mice; conditions: subcutaneous 500 ng/kg body weight per day for 2 weeks, vs saline with 0.5% BSA, FIG. 5
Protocol: Demyelination model mice were produced by performing a laminectomy at the 11th and 12th thoracic vertebrae in C57BL/6j mice (female, 7-week-old), and topically administering 2 μl of lysophosphatidylcholine diluted to 1% (w/v) in saline solution at a depth of 2 mm into the midline of the spinal column.
An FGF21-containing solution prepared by diluting recombinant FGF21 (R&D) in saline solution was subcutaneously administered for 2 weeks at a dose of 500 ng/kg body weight of FGF21 per day. After 2 weeks, the demyelination model mice were anesthetized and transcardially perfused with saline solution, and spinal cord tissue was harvested. The harvested spinal cord tissue was fixed with a 4% paraformaldehyde solution, which was then replaced with a 30% sucrose solution, and subsequently, frozen thin sections were prepared. The sections were immunostained using an anti-PDGFRα antibody and an anti-Ki67 antibody, and the number of PDGFRα and Ki67 double-positive cells in the sections was counted. As a control, a saline solution containing 0.5% BSA was used, and the number of PDGFRα and Ki67 double-positive cells was counted under the same conditions as those described above. This experiment conducted the study using five or six mice for each group.

demyelination model mice = test: Ladder walk test of hindlimb motor function in demyelination model mice (Example 7); type: in vivo, C57BL/6j mice; conditions: FGF21 administered as in Example 5, FIG. 7
Protocol: Demyelination model mice were created, and recombinant FGF21 was administered, as in Example 5 above. The hindlimb motor function of the mice was examined by performing the ladder walk test. A 1-m long ladder was installed in a position at a height of 15 cm. The mice were allowed to walk on the ladder with random widths of 0.6, 1.2, and 1.8 cm. The number of missed steps was counted, and the proportion (%) of the number of missed steps relative to the total number of steps was calculated. This experiment conducted the study using three mice for each group.

[3] = system: oligodendrocyte precursor cells in demyelination model mice; test: PDGFRα and Ki67 double-positive cells in spinal cord of demyelination model mice, osmotic pump administration (Example 4); type: in vivo, C57BL/6j mice; conditions: continuous local administration by osmotic pump for 7 days, 350 ng in total, vs saline, p<0.05, FIG. 4
Protocol: Demyelination model mice were produced by topically administering 2 μl per mouse of lysophosphatidylcholine diluted to 1% (w/v) in saline solution into the spinal cord of C57BL/6j mice (female, 7-week-old).
Osmotic pumps (ALZET) were filled with an FGF21-containing solution prepared by diluting recombinant FGF21 (R&D) to 4.17 μg/ml in saline solution, a cannula was attached to the tip of each pump, and the tip was attached to the site of lysophosphatidylcholine administration in each demyelination model mouse to continuously administer FGF21. After 7 days, the demyelination model mice were anesthetized and transcardially perfused with saline solution, and spinal cord tissue was harvested. Ultimately, 350 ng of FGF21 was administered. The spinal cord tissue was fixed with a 4% paraformaldehyde solution, which was then replaced with a 30% sucrose solution, and subsequently, frozen thin sections were prepared. The sections were immunostained using an anti-PDGFRα antibody and an anti-Ki67 antibody, and the number of PDGFRα and Ki67 double-positive cells in the sections was counted. PDGFRα is a marker for oligodendrocyte precursor cells, and Ki67 is a cell proliferation marker. As a control, saline solution was used, and the number of PDGFRα and Ki67 double-positive cells was counted under the same conditions as those described above. […]

[4] = system: human oligodendrocyte precursor cells; test: BrdU uptake by human oligodendrocyte precursor cells (Example 8); type: cell-based; design: dose or concentration left out as unconfirmed; conditions: recombinant human FGF21, human cells, vs saline control; significant difference; FIG. 8
Protocol: Recombinant human FGF21 (R&D) was diluted in saline solution immediately before use to prepare an FGF21-containing solution. Human oligodendrocyte precursor cells (ScienCell) were also prepared.
Initially, the oligodendrocyte precursor cells were seeded in a poly-L-lysinde-coated plastic tissue culture dish (Greiner Bio-One), and cultured in the following medium for 1 day (37° C., 5% CO2). The medium used was DMEM containing 4 mM L-gludamine (Sigma), 1 mM sodium pyruvate (Sigma), 0.1% bovine serum albumin (Sigma), 50 μg/ml apo-Transferrin (Sigma), 5 μg/ml insulin (Sigma), 30 nM sodium selenite (Sigma), 10 nM biotin (Sigma), 10 nM hydrocortisone (Sigma), 10 ng/ml Platelet-Derived Growth Factor-AA (Peprotech), 10 ng/ml basic fibroblast growth factor (Peprotech) 1 (v/v) %, and penicillin/streptomycin (Life Technologies). […] BrdU was subsequently added and cultured at 37° C. for 24 hours, and then the cells were collected; the BrdU uptake was then detected using the cell proliferation ELISA, BrdU colorimetric kit (Roche). As a control, an equivalent amount of saline solution was used instead of the FGF21-containing solution, and the BrdU uptake was measured under the same conditions as those described above. […]

B1: FGF21: Recombinant fibroblast growth factor 21 (R&D); the claimed active ingredient promoting oligodendrocyte precursor cell proliferation (protein, listed as Homo sapiens)
chain: MDSDETGFEHSGLWVSVLAGLLLGACQAHPIPDSSPLLQFGGQVRQRYLYTDDAQQTEAHLEIREDGTVGGAADQSPESLLQLKALKPGVIQILGVKTSRFLCQRPDGALYGSLHFDPEACSFRELLLEDGYNVYQSEAHGLPLHLPGNKSPHRDPAPRGPARFLPLPGLPPALPEPPGILAPQPPDVGSSDPLSMVGPSQGRSPSYAS
For B1, the MBP positive regions [1] was “increased”, the “number of PDGFRα and Ki67 double-positive cells” value [2] was “increased” and the “number of missed steps on the ladder” value (demyelination model mice) was “decreased”. The “number of PDGFRα and Ki67 double-positive cells” value [3] was “increased” and the “BrdU uptake by the oligodendrocyte precursor cells” value [4] was “markedly increased”.
